Data: the supplement of paper PMC7877785
± gives the uncertainty stated by the source.

Assay: self-splicing fitness, log relative to wild type (ln ratio); higher = more splicing; Tetrahymena group I intron in knt gene, E. coli kanamycin selection, DiMSum; sequences stand for … in CUCUCU…GGAGGGAAAAGUUAUCAGGCAUGCACCUGGUAGCUAGUCUUUAAACCAAUAGAUUGCAUCGGUUUAAAAGGCAAGACCGUCAAAUUGCGGGAAAGGGGUCAACAGCCGUUCAGUACCAAGUCUCAGGGGAAACUUUGAGAUGGCCUUGCAAAGGGUAUGGUAAUAAGCUGACGGACAUGGUCCUAACCACGCAGCCAAGUCCUAAGUCAACAGAUCUUCUGUUGAUAUGGAUGCAGUUCACAGACUAAAUGUCGGUCGGGGAAGAUGUAUUCUUCUCAUAAGAUAUAGUCGGACCUCUCCUUAAUGGGAGCUAGCGGAUGAAGUGAUGCAACACUGGAGCCGCUGGGAACUAAUUUGUAUGCGAAAGUAUAUUGAUUAGUUUUGGAGUACUCGUGGUCG
Method in brief: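 The eight P1ex-region nucleotides of an intron in the knt kanamycin-resistance gene on pET-22b(+) were all randomised and the library put into E. coli BL21(DE3). Six replicate transformations were grown overnight at 37°C or 30°C on LB agar with or without 25 μg/mL kanamycin, together with 100 μg/mL carbenicillin, 50 μM IPTG and 0.2% rhamnose. Colonies were pooled and amplicon-sequenced on an Illumina HiSeq 2500. Fitness from DiMSum is the error-weighted combination of wild-type-normalised replicate fold changes, kanamycin over none.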

Sequence | self-splicing fitness (ln) (30 °C) | self-splicing fitness (ln) (37 °C)
AAAUAGCAAUAUUACGAGAU | -2.1 ± 0.16 | -1.47 ± 0.21
AAAUAGCAAUAUUACGAGGG | -3.73 ± 0.19 | -3.61 ± 0.22
AAAUAGCAAUAUUACGAGGU | -2.99 ± 0.26 | -1.28 ± 0.19
AAAUAGCAAUAUUACGAUCC | -0.358 ± 0.14 | -0.695 ± 0.17
AAAUAGCAAUAUUACGAUCG | -0.864 ± 0.091 | -0.18 ± 0.11
AAAUAGCAAUAUUACGAUGA | -0.773 ± 0.096 | -0.0131 ± 0.11
AAAUAGCAAUAUUACGCCCU | 0.528 ± 0.16 | 0.336 ± 0.21
AAAUAGCAAUAUUACGCGCC | -0.57 ± 0.13 | -0.337 ± 0.15
AAAUAGCAAUAUUACGCUAU | -2.9 ± 0.18 | -2.22 ± 0.34
AAAUAGCAAUAUUACGCUUU | -2.63 ± 0.15 | -1.09 ± 0.12
AAAUAGCAAUAUUACGGACA | -1.08 ± 0.12 | -0.512 ± 0.13
AAAUAGCAAUAUUACGGCUA | -0.705 ± 0.12 | -0.0895 ± 0.13
AAAUAGCAAUAUUACGGGCA | -1.22 ± 0.11 | -0.312 ± 0.14
AAAUAGCAAUAUUACGGGGG | -2.94 ± 0.36 | -2.11 ± 0.31
AAAUAGCAAUAUUACGGGUC | -3.56 ± 0.17 | -3.1 ± 0.24
AAAUAGCAAUAUUACGGGUU | -1.92 ± 0.14 | -0.924 ± 0.2
AAAUAGCAAUAUUACGGUAU | -1.69 ± 0.1 | -0.496 ± 0.12
AAAUAGCAAUAUUACGGUCU | 0.108 ± 0.076 | -0.388 ± 0.084
AAAUAGCAAUAUUACGUAAC | -2.1 ± 0.2 | -0.398 ± 0.2
AAAUAGCAAUAUUACGUCGA | -1.78 ± 0.078 | -0.255 ± 0.076
AAAUAGCAAUAUUACGUUAC | -3.44 ± 0.22 | -2.77 ± 0.27
AACAAGCAAUAUUACGAAAG | -2.14 ± 0.14 | -2.73 ± 0.22
AACAAGCAAUAUUACGAAUC | -3.22 ± 0.17 | -2.24 ± 0.13
AACAAGCAAUAUUACGACAC | -1.66 ± 0.085 | -0.431 ± 0.097

Sequence | self-splicing fitness (ln) (30 °C) | self-splicing fitness (ln) (37 °C)
AACAAGCAAUAUUACGACCA | -0.617 ± 0.086 | -0.382 ± 0.12
AACAAGCAAUAUUACGAGCU | -0.919 ± 0.056 | -0.357 ± 0.073
AACAAGCAAUAUUACGAUUU | 0.129 ± 0.056 | 0.672 ± 0.077
AACAAGCAAUAUUACGCGAA | -1.78 ± 0.073 | -0.546 ± 0.084
AACAAGCAAUAUUACGCUAC |  | -3.21 ± 0.4
AACAAGCAAUAUUACGCUCA | -0.608 ± 0.054 | -0.27 ± 0.071
AACAAGCAAUAUUACGGCGU | -0.173 ± 0.063 | 0.163 ± 0.071
AACAAGCAAUAUUACGGGGA | -3.21 ± 0.14 | -0.987 ± 0.087
AACAAGCAAUAUUACGGUCU | -0.114 ± 0.037 | 0.456 ± 0.054
AACAAGCAAUAUUACGUAUU | -1.77 ± 0.079 | -0.983 ± 0.092
AACAAGCAAUAUUACGUCGU | -2.18 ± 0.068 | -0.677 ± 0.067
AACAAGCAAUAUUACGUUAC | -3.54 ± 0.11 | -3.01 ± 0.18
AACCAGCAAUAUUACGAACC | -0.246 ± 0.13 | 0.00425 ± 0.19
AACCAGCAAUAUUACGACGU | -0.111 ± 0.046 | 0.409 ± 0.06
AACCAGCAAUAUUACGAGAA | -1.71 ± 0.14 | -1.02 ± 0.13
AACCAGCAAUAUUACGCAAG | -2.54 ± 0.1 | -1 ± 0.1
AACCAGCAAUAUUACGCACA | -0.335 ± 0.054 | 0.326 ± 0.072
AACCAGCAAUAUUACGCCUG | -1.8 ± 0.066 | -0.745 ± 0.087
AACCAGCAAUAUUACGCGAA | -1.11 ± 0.06 | -0.99 ± 0.076
AACCAGCAAUAUUACGCGCG | -0.385 ± 0.082 | 0.256 ± 0.11
AACCAGCAAUAUUACGCUAA | -1.36 ± 0.068 | -0.61 ± 0.07
AACCAGCAAUAUUACGCUAC | -2.63 ± 0.14 | -2.05 ± 0.13
AACCAGCAAUAUUACGCUAU | -2.11 ± 0.094 | -0.398 ± 0.093
AACCAGCAAUAUUACGGCAC | -0.615 ± 0.055 | -0.257 ± 0.079

Sequence | self-splicing fitness (ln) (30 °C) | self-splicing fitness (ln) (37 °C)
AACCAGCAAUAUUACGGGGU | -3.73 ± 0.14 | -2.88 ± 0.16
AACCAGCAAUAUUACGGGUU | -2.89 ± 0.078 | -3.19 ± 0.13
AACCAGCAAUAUUACGGUCG | -0.366 ± 0.049 | 0.214 ± 0.07
AACCAGCAAUAUUACGUAAA | -1.13 ± 0.076 | -0.76 ± 0.084
AACCAGCAAUAUUACGUCAC | -3.92 ± 0.13 | -2.66 ± 0.13
AACCAGCAAUAUUACGUGCU | -3.52 ± 0.16 | -1.94 ± 0.15
AACCAGCAAUAUUACGUUAC | -2.93 ± 0.14 | -2.52 ± 0.17
AACGAGCAAUAUUACGACCA | -2.23 ± 0.18 | -1.53 ± 0.19
AACGAGCAAUAUUACGACGA | -2.08 ± 0.17 | -0.282 ± 0.14
AACGAGCAAUAUUACGAGGG | -3.03 ± 0.36 | -2.35 ± 0.29
AACGAGCAAUAUUACGCACU | -1.23 ± 0.11 | -0.611 ± 0.11
AACGAGCAAUAUUACGCCAU | -2.91 ± 0.27 | -1.52 ± 0.27
AACGAGCAAUAUUACGCCUG | -3.77 ± 0.32 | 
AACGAGCAAUAUUACGCGGG | -3.64 ± 0.42 | -2.32 ± 0.22
AACGAGCAAUAUUACGCUCA | -1.83 ± 0.12 | -0.666 ± 0.13
AACGAGCAAUAUUACGCUUC | -3.1 ± 0.25 | -1.7 ± 0.3
AACGAGCAAUAUUACGCUUU | -3.9 ± 0.17 | -2.31 ± 0.14
AACGAGCAAUAUUACGGACG | -2.19 ± 0.2 | -1.05 ± 0.23
AACGAGCAAUAUUACGGACU | -1.88 ± 0.13 | -0.603 ± 0.21
AACGAGCAAUAUUACGGGCA | -2.92 ± 0.24 | -2.38 ± 0.24
AACGAGCAAUAUUACGGGCG | -3.07 ± 0.15 | -1.11 ± 0.19
AACGAGCAAUAUUACGGGUG | -3.4 ± 0.17 | -2.34 ± 0.2
AACGAGCAAUAUUACGGUCU | -2.03 ± 0.093 | -0.898 ± 0.1
AACGAGCAAUAUUACGUCUG | -3.17 ± 0.2 | -1.63 ± 0.16

Sequence | self-splicing fitness (ln) (30 °C) | self-splicing fitness (ln) (37 °C)
AACGAGCAAUAUUACGUGAG | -3.58 ± 0.17 | -0.98 ± 0.13
AACGAGCAAUAUUACGUGGC | -3.85 ± 0.3 | -2.94 ± 0.27
AACGAGCAAUAUUACGUUGU | -3.8 ± 0.098 | -3.3 ± 0.13
AACUAGCAAUAUUACGAAGA | -2.62 ± 0.14 | -1.05 ± 0.12
AACUAGCAAUAUUACGAAUA | -2.71 ± 0.2 | -1.6 ± 0.13
AACUAGCAAUAUUACGACAC | -1.04 ± 0.085 | -0.404 ± 0.11
AACUAGCAAUAUUACGACUG | -0.606 ± 0.1 | -0.989 ± 0.13
AACUAGCAAUAUUACGAGUC | -3.83 ± 0.33 | -1.77 ± 0.19
AACUAGCAAUAUUACGAGUG | -0.165 ± 0.059 | -0.29 ± 0.074
AACUAGCAAUAUUACGAGUU | -3.44 ± 0.24 | -1.89 ± 0.22
AACUAGCAAUAUUACGAUCA | -0.213 ± 0.099 | -0.0939 ± 0.11
AACUAGCAAUAUUACGCACG | -0.871 ± 0.098 | -0.361 ± 0.12
AACUAGCAAUAUUACGCAUA | -1.64 ± 0.15 | -1.1 ± 0.14
AACUAGCAAUAUUACGCGAC | -2.49 ± 0.27 | 
AACUAGCAAUAUUACGCUAG | -4.12 ± 0.23 | -2.81 ± 0.22
AACUAGCAAUAUUACGCUCU | -0.509 ± 0.12 | 0.627 ± 0.11
AACUAGCAAUAUUACGCUGC | -2.59 ± 0.14 | -2.29 ± 0.18
AACUAGCAAUAUUACGGAAU | -2.42 ± 0.1 | -1.83 ± 0.14
AACUAGCAAUAUUACGGACC | -0.676 ± 0.071 | -0.0449 ± 0.11
AACUAGCAAUAUUACGGCGA | -0.842 ± 0.1 | -0.155 ± 0.13
AACUAGCAAUAUUACGGCUC | -0.662 ± 0.1 | -0.155 ± 0.11
AACUAGCAAUAUUACGGGGA | -1.3 ± 0.12 | -0.982 ± 0.13
AACUAGCAAUAUUACGGGUC | -1.88 ± 0.24 | -1.78 ± 0.22
AACUAGCAAUAUUACGUCAC | -2.87 ± 0.18 | 
